Reference: the supplement of paper PMC10724198
± gives the standard deviation of the averaged measurements.

What follows are sequences tested on Saccharomyces cerevisiae (assay: protein stability index of tFT-peptide fusion (C-terminal peptide) (PSI (0-1 scale)); higher = more stable (slower turnover)). Details: genetic background: das1 deletion; temperature: 30 C.
Procedure: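 MPS profiling in S. cerevisiae of the yeast C-terminome library: the last 12 aa of each annotated ORF are fused to the C-terminus of a sfGFP-mCherry timer, after a GGGS linker. Cells are FACS-sorted into 8 mCherry/sfGFP bins and deep-sequenced. PSI runs from 0 (unstable) to 1 (stable); wild type and das1Δ backgrounds, two technical replicates each.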

Point of comparison: ELPSYKKTSKQN [PSG1 C-terminal 12 aa], protein stability index 0.722 ± 0.03. Against it:
- EEGQTQPEEESA [BUR6 C-terminal 12 aa] — within error, 0.691 ± 0.0078
- EERDRRRAQQGL [RPS4A C-terminal 12 aa] — within error, 0.6948 ± 0.0053
- EFDDYESRMHGI [EAR1 C-terminal 12 aa] — within error, 0.73 ± 0.029
- EGEDEELDIDDI [TIF11 C-terminal 12 aa] — lower, 0.671 ± 0.0097
- EGIETTHNKRIR [AMA1 C-terminal 12 aa] — within error, 0.675 ± 0.018
- EGKWEPAGEVHQ [SEC13 C-terminal 12 aa] — within error, 0.706 ± 0.012
- EGVVLGQRRDIV [SCP1 C-terminal 12 aa] — within error, 0.696 ± 0.028
- EHLWNCFFHGSD [IRC20 C-terminal 12 aa] — within error, 0.73 ± 0.012
- EHVGKQCGYKYH [STP3 C-terminal 12 aa] — within error, 0.705 ± 0.023
- EIFNDFSKRCCF [CDC43 C-terminal 12 aa] — within error, 0.7326 ± 0.0031
- EIMLGKNLLITS [YNL109W C-terminal 12 aa] — lower, 0.619 ± 0.0087
- EIVRNFSLFNMV [ARP3 C-terminal 12 aa] — within error, 0.697 ± 0.031
- EKANDIGFNKFR [RPS29A C-terminal 12 aa] — within error, 0.678 ± 0.014
- EKDNSQKIEAKK [SDH4 C-terminal 12 aa] — within error, 0.69 ± 0.012
- EKEALWKFAKRL [ATP10 C-terminal 12 aa] — within error, 0.699 ± 0.032
- EKKYLNQSQNQA [BSD2 C-terminal 12 aa] — within error, 0.684 ± 0.035
- EKLISLSQSMEN [ATP11 C-terminal 12 aa] — within error, 0.718 ± 0.0096
- EKVTNTLSSLKF [LTV1 C-terminal 12 aa] — within error, 0.694 ± 0.0074
- ELAKKWKQEQAL [CLF1 C-terminal 12 aa] — lower, 0.676 ± 0.011
- ELFTILHDLTAA [TPS3 C-terminal 12 aa] — within error, 0.718 ± 0.086
- ELSMIMEHFSQQ [RPS12 C-terminal 12 aa] — within error, 0.72 ± 0.02
- ELTLFLSYKSYS [YGR045C C-terminal 12 aa] — within error, 0.683 ± 0.02
- ELTRLVDSKRKR [HFA1 C-terminal 12 aa] — within error, 0.717 ± 0.045
- ELWTLQAPELNL [YKL036C C-terminal 12 aa] — within error, 0.72 ± 0.021
- ENAGKIFFNETE [YHR213W-A C-terminal 12 aa] — within error, 0.733 ± 0.029
- ENKPDSTFGIIL [YOR170W C-terminal 12 aa] — within error, 0.718 ± 0.019
- ENLITILDSNYI [ISR1 C-terminal 12 aa] — within error, 0.74 ± 0.0095
- ENLTQKKKQSAN [PCT1 C-terminal 12 aa] — within error, 0.703 ± 0.0058
- ENRPGPYEFRET [FMP41 C-terminal 12 aa] — within error, 0.6916 ± 0.0065
- EPKEIVDGKVLK [CAM1 C-terminal 12 aa] — within error, 0.692 ± 0.021
- EPTLKLSNIYRQ [YBR174C C-terminal 12 aa] — within error, 0.7092 ± 0.0033
- EQDAILLKKHIS [NAT5 C-terminal 12 aa] — within error, 0.714 ± 0.033
- ERAIKTVRYLLY [YOL079W C-terminal 12 aa] — lower, 0.678 ± 0.008
- ERKLSTKKVSVE [YHR078W C-terminal 12 aa] — within error, 0.707 ± 0.052
- ERTKLREKLEII [PXA1 C-terminal 12 aa] — within error, 0.7064 ± 0.0059
- ESDLAAARSEDK [VTH1 C-terminal 12 aa] — within error, 0.7237 ± 0.0031
- ESEKELYNATRA [NHP6B C-terminal 12 aa] — lower, 0.68817 ± 0.00058
- ESNSALDFTRLA [SSU1 C-terminal 12 aa] — within error, 0.707 ± 0.025
- ESQPAPKEAPDY [SNP1 C-terminal 12 aa] — within error, 0.674 ± 0.028
- ETLEAETVKIDI [POL31 C-terminal 12 aa] — within error, 0.69571 ± 0.00029
